Experimental data taken from the nanobody polyreactivity screen of Harvey et al. (2022).

Assay: yeast display, Sf9 membrane polyspecificity reagent, FACS + sequencing; frameworks hold sequencing errors
Method in brief: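 Using colony PCR, genes from sorted yeast display clones were amplified, then sequenced on MiSeq at 2 × 250 and filtered by CDR length. The clones had been stained with 10% biotinylated, detergent-solubilized Sf9 membrane reagent for 1 hour at 4 °C and sorted by FACS into low and high (top ~1%) gates on anti-HA and streptavidin fluorescence. Polyreactivity labels come from the gate of origin.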

| Sequence | polyreactivity (PSR sort gate) |
| --- | --- |
| QVQLVESGGGLVQAGGSLRLSCAASGSTFQVYTKGWYIQAPGKEREFVASISWSGSSTYYADSVKGRFTISRDNAKNTVYLQMNSLKPEDTAVYYCAARARIKYLADPGYYWGQGTQVTVSS | high polyreactivity |
| QVQLVESGGGLVQAGGSLRLSCAASGYTFYVYAMGWYRQAPGKERELVAAIRSGGTTYYADSVKGRFTISRDNAKYTVYLQMNSLKPEDTAVYYCAADVQDRYHRAWYDYWGQGTQVTVSS | low polyreactivity |
| QVQLVESGGGLVQPGGSLRLSCAASGRTLQRNAMVWYRQAPGKERELVAAISSSGGSTYYADSVKGRFTISRDNAKNTFYLQMNSLKPDDTAVYYCNTDSVYRYHYWGQGTEVTVSS | high polyreactivity |
| QDQLVESGGGLVQAGGSLRLSCAASGFIFKWNAMGWYRQAPGKERELVAGITRGGSTYADSVKGRFTISRDNAKNTVYLQMNSLKPEDTAVDYCAAGDYDEYDYWGQGTQVTVSS | high polyreactivity |
| QVQLVESGGGLVQAGGSLRLSCAASGRTFALNAMGWYRQAPGKERELVAAISWSSGRTYYADSVKGRFTISRDNAKNTVYLQMNSLKPEDTAVYYCAALVAHKGDYWGQGTQVTVSS | high polyreactivity |
| QVQLVESGGGLVQAGGSLRLSCAASGRTFSNYMGWYRQAPGKERELVAAISWRGGTTYYADSVKGRFTISRDNAKNTVYLQMNSLKPEDTAVYYCNADVVRYRHWHRGDYWGQGTQVTVSS | low polyreactivity |
| QVQLVESGGGLVQAGGSLRLSCAASGSTFRYYAMGWYRQAPGKERELVAAISYRGVRTNYADSVKGRFTISRDHAKNTVYLQMNSLKPEDTAVYYCADRFGRSSSGSPYDRYGYWGQGTQVTVSS | high polyreactivity |
| QVQLVESGGGLVQAGGSLRLSCAASGSTFYWYAMGWYRQAPGKERELVAAIDSGGSTNYADSVKGRFTISRDNAKNTVYLQMNSLKPEDTAVYYCATVYYTIWDPTYEYDYWGQGTQVTVSS | low polyreactivity |
| QVQLVESGGGLVQAGGSLRLRCAASGRIFTYYAMGWYRPAPGKERELVAAISWSGGSTYYADSVKGRFTISRDNAKNTVYLQMNSLKPEDTAVYYCNAVYPSVYPVSTRYYWGQGTQVTVSS | high polyreactivity |
| QVQLVESGGGLVQAGGSLRLSCAASGRTFAGNAMGWYRQAPGKERELVAGISSGGSTNNADSVKGRFTSTRDNAKNTVYLQMNSLNPEDTAVYYCAKRYFRKGYPLFQYAYGYWGQGTQVTLSS | high polyreactivity |
| QVQLVESGGGLVQAGGSLRLSCAPSGRIFQYNAMGWYRQAPGKERELGAAISNSTTRTYYADSVKGRFTISRDNAKNTVYLQMNSLKPEDTGVYYCAARGYFWSSYKYDYWVQGTQVTVSS | high polyreactivity |
| QVQLVESGGGLVQAGCSLRLSCAASGRTLKYNAMGGYIQAPGKERELVAAISRSGGRLYYADSVKGRFTMSRDNAKNTVYLQMNSLKPEDTAVYYCAKDRSGSYYNFPEYDYWGQGTQVTVSS | high polyreactivity |
| QVQLVESGGGLVQAGGSLRLSCAASGSTFSNYAMGWYRQAPGKERELVAVITRGASTYYADSVKGRFTISRDNAKNTVYLPMNSLKPEDTAVFYCNVPIRGQLVHTYPYDYWGQGTQVTVSS | high polyreactivity |
| QVQLVESGGGLVQAGVSLRLSCAASGRIFYHNAMGWYRQAPGKEREFVAAISSRGGTTYYADSVKGRFTISRDNAKKTVYLQMNILKPEDTAVYYCAKQYYSASPAKGDYWGQGTQVTVSS | high polyreactivity |
| QVQLVESGGGLVQAGGSLRLSCAASGSIFRHYAMGWYSQAPGKERELVASITLRGGSTYYADSVKGPFTISRDNAKNTVYLQMNSLKPEDTAVYYCAKRAGPEYDYWGQGTQVTVSS | low polyreactivity |
| QVQLVESGGGLVQAGGSLRLSCAASGRTFVGYAMGWYRQAPGKERELVAAISTSGGRTYYADSVKGRFTISRDNEKYTVYLQMNSLKPEDTAVYYCAAGFRASIGYVTEYYWGQGTQVTVTS | high polyreactivity |
| QDQLVESGGGLVQAGGSLRLSCAASGLIIRWYAMGWDRQAPGKERELVAAISGNGGRTYYADSVKGRFTISRDNASNTVYLQMNSLKPEDTAVYYCAAEYRRALGVDYWGQGTQVTVSW | high polyreactivity |
| QVQLGESGGGLVQAGGSLRLSCAASGRTFVSNAMGWYRPAPGNERELVAAITQSGGSTYADSVKGRFTISRDNAKNTVYLQMNSLKPEDTAVYYCNADHAFVGTYYERHDYWGQGTQVTVSS | low polyreactivity |
| QVQLVESGGGLVQAGGSLRLSCAASGSIFMRYSMGWYRQAPGKDRELVAAITRSGGSTYYADSVKGRFTISRDNAKNTVYLQMNSLKPEDTAVYFCAAYTFVTVGYDYWGQGTQVTVSS | high polyreactivity |
| QVQLVESGGGLVQAGGSLRLSCAASGYTFPIYAMGWYRQAPGKEREVVATISSGGRTNYADSVKGRFTISRDNAKNTVYLQMNSLKPEDTAVYYCNARRLGWHALYLYDYWGQGTQVTVSS | high polyreactivity |
| QVQLVQTGGGLVQAGGSLRLSCAASGRIFLSYTRGWYSQAPGKERELVATIDSRVSTNYADSVKGRFTISRDNAKNTVYLQMNSLKPEDTAVYYCNADGFYSSHGYDYCGQGTQVTVSS | low polyreactivity |
| QVQLVESGGGLVQAGGSLRLSCAASGRTFKRFAMGWYRQAPGKERELVAAITWSGGNTYYADSVKGRFTISRDNAKNTVYLQMNSLKPEDTAVYYCAAKGAGRRYDSWGQGTQVTVSS | high polyreactivity |

| Sequence | polyreactivity (PSR sort gate) |
| --- | --- |
| QVQLVESGGGLVQAGGSLRLRCAASGSISWLYSMGCYSQAPGKERELVAAISWGGGDTYYADSVKGRFTISRDNAKNTVYLQMHSLKPEDTEVFYCAADSDYYWLAYDYWGQGTQVTLSS | low polyreactivity |
| QVQLVESGGGLVQAGGSLRLSCAASGSTFGRNTMGWYRKAPGKERELVASITRSSTSTNYADSVKGRFTISRDNAKNTVYLQMNSLKPEDTAVYYCAARALRTDRSPVGSHEYWGQGTQVTVSS | low polyreactivity |
| QVQLLESGGGLVQAGGSLRLSCAASGSTFQAYAMGWYRQAPGKERELVAAISVSDGITYYADSVKGRFTISRDNAKNTVYLQMNSLKPEDTAVYYCAAEISLSRSDRIESYDYWGQGTQVTVSS | low polyreactivity |
| QVQLVESGGGLVQAGGSLRLSCAASGSTFSNYAMGWYRQAPGKERELVAAISRRGTSTYYADSVKGRFTISRDNAKNTVYLQMNSLKPEDTAVYYCAADYFRYTYDYWGQGTQVTVSS | high polyreactivity |
| QVQLVESVGGLVQAGGSLRLSCAASGRIFNYNAMGWYRQAPGKERELVAAITSSGDSTNYADSVKGRFTISRDNAKNTVYLQMNSLKPEDTAVYYCNASSPYDYDWGQGTQVTVSS | low polyreactivity |
| QVQLVESGGGLVQAGGSLRLSCAASGLIFVGYVMGWYRQAPGKERELVAAITSSSGSTYYADSVKGRFTISRDNAKNTVYLQKNSLKPEDTAVYYCAAEWGYYWYYDSEYWGQGTQVTVSS | high polyreactivity |
| QVQLVESGGGLVQAGGSLRLSCAASGRIFFNYAMGWYRQAPGKERELVAAIRGGGSTYADSVKGRFTISRDNAKNTVYLQMNSLKPEDTAVYYCAARYSGSPYHTRRYYYWGQGTQVTVSS | high polyreactivity |
| QVQLVESGGGLVQAGGSLRLSCAASGSTFYYYAMGWYRQAPGKERELVASINYSAGRTYYADSVKGRFTISRDNAKNTVYLQMNSLKPEDTAVYYCATGYPYHVNRYYYWGQGTQVTVSS | high polyreactivity |
| QVQLVESGGGLVQAGGSLRLSCAASGLTFFRNAMGWYRQAPGKEREFVAGITSTDGSTYYADSVKGRFTISRDNAKNTVYLQMNSLKPEDTAVYYCAAAYRVRGRTYDSWGQGTQVTVSS | high polyreactivity |
| QVQLVESGGGLVQAGGSLRLSCAASGRIFPTYTMGWYRQAPGKERELVAHINRGGGSTYYADSVKGRFTISRDNAKYTVYLQMNSLKPEDTAVYYCAVDTYAYRGVSYWSERTYYYWGQGTQVTVSS | low polyreactivity |
| QVQLVESGGGLVQAGGRLRLSCAASGFTFSRNAMGWYRQAPGKERELVAAITASTSRTYYADSVKGRFTISRDNAKNTVYLQMTSLKQEDSAVYYCNAGRPGRGPYGYWGQGTQVTVSS | high polyreactivity |
| QVQLVESGGGLVQAGGSLRLSCAASGSTFHSYAMGWYRQAPGKERELVAGITWGGGTYYADSVKGRFTISRDNAKNTVYLQMNSLKPEDTAVYYCAALSYVGSNVYTGAPAAPYDYWGQGTQVTVSS | low polyreactivity |
| QVQLQERGSGLVQAGGSLRLTCAESGAIFPAYLMGWYRQPPGKERELVAGISYGSITYCADSVKGRFNIIRDNAKNTVYLQMNSLKPEDTAVKYCAVWRPGGDEYYYWGQGTQVTVSS | low polyreactivity |
| QVQLVESGGGLVQAGGSLRLSCAASGRTLARNAMGWYRQAPGKERELVASINGRTTRTYYADSVKGRFTISRDNAKNTVYFQMNSLKPEDPAVYYCAADPPGYVYGKRYYWGQGTQVTVSS | high polyreactivity |
| QVQLVESGGGLVQAGGSLRVSCAASGSTFDVNAMGWYRQAPGKERELVAVITSGGSTNYADSVKGRFTISRDNAKNSVYLQMNSLKPEATAVYYCAKDSRTLYDYWGQGTQVTVSS | low polyreactivity |
| HVQLVESGGGLVQAGGSRRLSCAASGRIFYGYAMGWYRQAPGKERELVAGISYRGARTYYADSVKGRFTISRDNAKNTVYLQMNSLKPEDTAVYYCNAVPYYPFAFGALDYWGQGTQVTVSS | high polyreactivity |
| QVQLVESGGGLVQAGGSLRLSCAASGRTFQGYAMGWYRQAPGKERELVAAISRSGGRTYYADSVKGRFTISRDNAKNTVYLQMNSLKPEDTAVYYCAARRRWSQTPFDYWGQGTQVTVSS | high polyreactivity |
| QVQLVESGVGLVQAGGSLRLRCAASGSIFRRYAMGWYRQAPGKERELVARITSSSGTTTYADSVKGRFTISRYNSKNNVYLQMNSLKPEDTAVYYCAAAWWHAYYGKNYYWGQGTQVTVSS | high polyreactivity |
| QVQLVESGGGLVQAGGSLRLSCAASGSIFLYYAMGWYIQAPGKERELVAGIRRGGRTNYADSVKGRFTISRDNAKNTVYLQMNSLKPEDTAVYYCAKGGYWGHGTQVTVSS | high polyreactivity |
| QVQLVESGGGLVQAGGSLRLSSAASGSILTINAMGWYRLAPGKERELVARITISSGSTYYADSVKGRFTISRDNAKNTVYLQLNSLKPEDTAVYYCAKLRYPYLFWDDSEYWGQGTQVTVSS | low polyreactivity |
| QVQLVESGGGLVKAGGSLRLSSAASGRILYGNAMGGYRQAPGKERELVAANTRRGGSTYYADSVKGRFTISRDNAKNTVSLQMNSLKPEDTAVYYCAASRYTSYYKDGCYAYYYWGQGTQVTVSS | high polyreactivity |
